Measurements published in the DeepSol protein solubility set.

Assay: soluble on expression in E. coli; label from the status in PepcDB or PDB records

| Sequence | soluble on expression in E. coli |
| --- | --- |
| MGSDKIHHHHHHTDDEEKDNNGQGSVSVETNYLPIADPYVMFYNNKYYAYGTGGTTAGEGFACFSSDDLKNWKREGQALSATDSYGTWGFWAPEVYYVESKKKFYLFYSAEEHICVATSTTPEGPFRQEVKQPIWSEKSIDTSLFIDDDGTPYLYFVRFTDGNVIWVAQMTDDLMSIKTETLNQCIKAEVSWELLQGKVAEGPSLLKKNGVYYLIYSANHYENKGYGVGYATSDTPMGPWVKYSKNPLLQGDAATGLVGTGHGAPFQCKDGSWKYIFHAHWSAAEIQPRTSYIKDFAISDQGVVTISGTVIKPRVLK | not soluble |
| MATIIPTAWQPFKSETPLTTFPFRFPAEWEPQSAILIAWPHANTDWSAHLADVEETYIALVAAITRFQMVIICVLDDDLQTYTEARLRSASVAMQQVRFTVASYNDTWLRDSGPITLIGTNRDFRLLDFRFTGWGGKFEAKADDQLVSVLHANGLFKNTQMHSINFALEGGAIETDGAGTLLTTWRCLHERHPQRTRKTLDANLTAWLAQNRVLWLEHGYLEGDDTDAHIDTLARFASTDSIVYQSCDNTTDSHYAELQAMANELTALRTTEGRAYRLFPLPWTKPILDQDRRLPASYANFLIIEGAVLMPTYDDPADTIAQSVLAEAFP | not soluble |
| EFKHILVGVDDSDDAQLAFRYAINRAKSDGAKLTIVSILEQDNMNVYEAMSKDFVHGQRKDLEEHVQQYQKLARDFGVTDVNAVVDEGDPGETIVKTVIPALKPDLLVIGSVAKHGVRKYFGSQAAYMAKHAPISVLVIR | not soluble |
| MSLADFLRHRREALRPEDVGLSPGARRRARGLRREEVAALALMSTDYYTRLEQRRGPQPSERMLDSLARALRLTRAERDYLYRVAGHNAPASLSDPSPVAPALLRVLDRLDDTPALILTELGETLVQNRMAVALFGDASRHTGLARSAVYRWFTDPSERSVYPESDWGRQSRAQVANLRAAYGMRGARSHAGALVRILQQSNEEFAELWERHEVAQRFEDHKTLIHPEVGAIEVDCQALFTEDQSQTLLVLTAPPRTESHEKLQLLAVLGLHRFTEAEDQVREGHHHHHH | not soluble |
| MEQMRFKPRPFVKPVKFKCKFCLDCCKGRHVYLTLNDIKRLIDAGYDPQDFLTISIEDGKIRFVLSVREWDLGCVFQDPETGLCKVHPHRPLICRIYPFMVSKKPLGIKGEKKFEINGKSFWLYYDENCPGINDEDGDTITPEEILKLGIKFEEELEATDLDGFLKILRSLEHHHHHH | soluble |
| MLDYFFNPKGIAVIGASNDPKKLGYEVFKNLKEYKKGKVYPVNIKEEEVQGVKAYKSVKDIPDEIDLAIIVVPKRFVKDTLIQCGEKGVKGVVIITAGFGETGEEGKREEKELVEIAHKYGMRIIGPNCVGIMNTHVDLNATFITVAKKGNVAFISQSGALGAGIVYKTIKEDIGFSKFISVGNMADVDFAELMEYLADTEEDKAIALYIEGVRNGKKFMEVAKRVTKKKPIIALKAGKSESGARAASSHTGSLAGSWKIYEAAFKQSGVLVANTIDEMLSMARAFSQPLPRGNKVAIMTNAGGPGVLTADELDKRGLKLATLEEKTIEELRSFLPPMAAVKNPVDMIASARGEDYYRTAKLLLQDPNVDMLIAICVVPTFAGMTLTEHAEGIIRAVKEVNNEKPVLAMFMAGYVSEKAKELLEKNGIPTYERPEDVASAAYALVEQAKNVGILEVE | soluble |
| GPGSMYCHAGVPSTSPSPTDFSEVHKILCGHIKQGNNFSVAAAVALEPLHGSSEFWRTCGYRSGIVSALLASSLGVQRETDQLSHLEPMTVADVYAMLRHVVDENAHLRQIIARLESGECDPDDGSGGITSSTERLRSLISEGYDALTGRSSPCMGEYDCGQTPGKWKTCSNGAAGTKRRRDSPEVTEWAYVRPESPVPASETLSPAANSGDDTVDEAEQNNALDVLEQLPALPGTTRTVSSFDAVGEMVNRGAGGPSLHPTNPSEFRVGSERGSTIETHSSSEVSNFANVGVGTSSGKQKRYKFSASEDEAIIKGLARFTKGQQRFQQIYYAYRSVWHPARTVSQLYDHWRGTLRYKVIQQQGYRGKNSVAARSPEKASNMENNE | not soluble |
| MSLIQAIKAKIIVTPGHAPIKDSAVIVKNNIIEKIIPSTELKNNYYQIIDLKNSVVLPGFINSHIHLELHWVQKLLEPFKSFPSWLNQIIKLKKNFNNSKIPYWVNKSLNECINSGVTTIGEISSYDGLDYKPILDKKIRAVYFYELTNSTLKNIENKFFQSLIRNKTNPLINFRIFPHSIYSLDTKSLKRILAFAKKHNIKLGMHLSESIDEVKYSKRKRNNFEKEVFPKTSYKPTIETKPTTPLEYLDTLNINRQHITLIHMNNLSQNDFKILTKKEYPVIICPRSNLYLNQKLPNIKFFMNYMKTGLGTDGLSSNLSINFLDEINFLYLNAKKIINNPEEKILSIATIGGAKALGIDNEVGTIEKGKKADIIAFDLLNKNPYLSIIHSKKRNLKMSMINGKIIKLREGHHHHHH | soluble |
| MGSNGGGGGGGKQVLWEFHATGPRNISNPSWRDLIRSSWTDPNYRRIAVSCFVQAAYLLELDRQEKRNGESALAPNWWKPFKYKLVRPLIDSRDGSIYGVLLEWDQLAALSDLIVLRPNGAPKVVLAIRGTVLKQSTVVRDLEDDFRFFTMESLRGSVRFTGALEALKSAIDKRGSNNVCIAGHSLGAGFALQVGKTLAQDGIFVECHLFNPPSVSLGMGLRKLQEKAGKVLKRYVSGSSSNATELSHPTEDGGAASEIGEEKLIKEVKRWVPNLYINSCDYICCFYADRSGVATVTAEKHDGHSGTHSKLFVIAKGPKKFLEAHGLQQWWSDDYELQLAVHDSKLMYRHLKSLYVNES | soluble |
| MASFARRAMSLAQIPSARISSGAASIGQRRCLAGAADHHGSTKVDFWKQPTNPGNWKEEHFVLISLSGWGLLFYSGYKLATGGKKEYTMSFIVTRKTFYGETSHSHALCFPF | not soluble |
| MGEIADSLAGLTISVVSPDNQLAATVRRRREVTVHFRPGSYERYDARTLETQLSQLFTLVMSGYRQGYMSVMEAHDMTVMADASDVDTEAGRIVRRRRDETVALGESAQGMVRAKTRGLSEWRFKIADGALSRLSEEQFTAEIHGAFMNVMADWSRRVRRIHWEVFSPDRVPAAGR | not soluble |
| EMETYVNKLHEGSTYTAAVQYNVLEKDDDPASLTIWVPMFQSSMPADLLIKELANVNILVKQISTPKGPSLRVMINSRSAVLAQMPSKFTICANVSLDDRSKLAYDVTTPCEIKACSLTCLKSKNMLTTVKDLTMKTLNPTHDIIALCEFENIVTSKKVIIPTYLRSISVRNKDLNTLENITTTEFKNAITNAKIIPYSGLLLVITVTDNKGAFKYIKPQSQFIVDLGAYLEKESIYYVTTNWKHTATRFAIKPRED | soluble |
| MSLEVYYPGSVVFPADATLEQKVEMAAKVVPTLQQLAWQQMELTAFLHFGINTFTDSEWGDGKEDPALFNPVELDARQWVRILHEAGFRMVILTAKHHDGFCLWPTATTRHSVASSPWREGKGDVVKEVRAACEEYGMKFGIYLSPWDRNAECYGDSHRYNRFFVSQLTELLTHYGEVHEVWFDGANGEGPNGKRQEYDWETFYDTIRRLQPQAVMAIMGDDVRWVGNERGLGRTTEWSATVLTPGIYSRSKTERNRLGIRENSPDLGSREVLKEAGEIFWYPSEVDVSIRPGWFYHAAEDKKVKSLDKLVDIYFQSVGYNSVLLLNVPPDRRGLIHEADALRLKEWADYLGRAFAHDRVVDSARYAVVQGHAVEEYALESKTHINILMLQEDITKGQRTEAFTVEAWVDGAWQEIGRGTTIGYKRLLRIPAVETDRIRVRIEQEGHHHHHH | not soluble |
| MSLHSVAEREKRNAVHDSLTGLPNRKYCFELIDDRIQSGDPFSVILFDVVNFKQVNDAMGHFCGDQLLIQIGQRLQDKLKGSDKIFRVGGDEFVILTSSACEKTGTELIESLDCALSARFHLDEFQVSSRVVFGISTYPYDAISNDLLIKHADIAMYHAKRNGNLFAFYHDDMNVGAKYQLEISSRIQCALEKEEFQLYYQPLIDANTNLAVGFEAVIRWHDENGKTISPNDFIPIAERSNQVHNITMWVLGQVEKDLKTFIEKGIKLPVHVNLSAKDLSSNLLFHRLEKLLENNPQFADLISLEITETMAIDRVVELNPLIHQIKGLGIKISLDDFGTGYSSLSLLRDLPVDQIKIDRSFLCTANRTEGSRSIVENTIALAHGLGYSVVAEGVQDMDTLYFLRSRGCDIIQGYLFCPALPLNEVINWVNEHDDKQSHTRRAEGHHHHHH | soluble |
